Data as given in patent publication US8053186 (OHIO STATE UNIVERSITY RESEARCH FOUNDATION, dated 2011).

B1: DGCR8 (endogenous) (other, human, UniProt Q8WYQ5 1-773, looked up)
chain: METDESPSPLPCGPAGEAVMESRARPFQALPREQSPPPPLQTSSGAEVMDVGSGGDGQSELPAEDPFNFYGASLLSKGSFSKGRLLIDPNCSGHSPRTARHAPAVRKFSPDLKLLKDVKISVSFTESCRSKDRKVLYTGAERDVRAECGLLLSPVSGDVHACPFGGSVGDGVGIGGESADKKDEENELDQEKRVEYAVLDELEDFTDNLELDEEGAGGFTAKAIVQRDRVDEEALNFPYEDDFDNDVDALLEEGLCAPKKRRTEEKYGGDSDHPSDGETSVQPMMTKIKTVLKSRGRPPTEPLPDGWIMTFHNSGVPVYLHRESRVVTWSRPYFLGTGSIRKHDPPLSSIPCLHYKKMKDNEEREQSSDLTPSGDVSPVKPLSRSAELEFPLDEPDSMGADPGPPDEKDPLGAEAAPGALGQVKAKVEVCKDESVDLEEFRSYLEKRFDFEQVTVKKFRTWAERRQFNREMKRKQAESERPILPANQKLITLSVQDAPTKKEFVINPNGKSEVCILHEYMQRVLKVRPVYNFFECENPSEPFGASVTIDGVTYGSGTASSKKLAKNKAARATLEILIPDFVKQTSEEKPKDSEELEYFNHISIEDSRVYELTSKAGLLSPYQILHECLKRNHGMGDTSIKFEVVPGKNQKSEYVMACGKHTVRGWCKNKRVGKQLASQKILQLLHPHVKNWGSLLRMYGRESSKMVKQETSDKSVIELQQYAKKNKPNLHILSKLQEEMKRLAEEREETRKKPKMSIVASAQPGGEPLCTVDV
B2: Drosha (endogenous, immunoprecipitated from SEMK2 or PER377 nuclear extracts) (enzyme, human, UniProt Q9NRR4 1-1374, looked up)
chain: MMQGNTCHRMSFHPGRGCPRGRGGHGARPSAPSFRPQNLRLLHPQQPPVQYQYEPPSAPSTTFSNSPAPNFLPPRPDFVPFPPPMPPSAQGPLPPCPIRPPFPNHQMRHPFPVPPCFPPMPPPMPCPNNPPVPGAPPGQGTFPFMMPPPSMPHPPPPPVMPQQVNYQYPPGYSHHNFPPPSFNSFQNNPSSFLPSANNSSSPHFRHLPPYPLPKAPSERRSPERLKHYDDHRHRDHSHGRGERHRSLDRRERGRSPDRRRQDSRYRSDYDRGRTPSRHRSYERSRERERERHRHRDNRRSPSLERSYKKEYKRSGRSYGLSVVPEPAGCTPELPGEIIKNTDSWAPPLEIVNHRSPSREKKRARWEEEKDRWSDNQSSGKDKNYTSIKEKEPEETMPDKNEEEEEELLKPVWIRCTHSENYYSSDPMDQVGDSTVVGTSRLRDLYDKFEEELGSRQEKAKAARPPWEPPKTKLDEDLESSSESECESDEDSTCSSSSDSEVFDVIAEIKRKKAHPDRLHDELWYNDPGQMNDGPLCKCSAKARRTGIRHSIYPGEEAIKPCRPMTNNAGRLFHYRITVSPPTNFLTDRPTVIEYDDHEYIFEGFSMFAHAPLTNIPLCKVIRFNIDYTIHFIEEMMPENFCVKGLELFSLFLFRDILELYDWNLKGPLFEDSPPCCPRFHFMPRFVRFLPDGGKEVLSMHQILLYLLRCSKALVPEEEIANMLQWEELEWQKYAEECKGMIVTNPGTKPSSVRIDQLDREQFNPDVITFPIIVHFGIRPAQLSYAGDPQYQKLWKSYVKLRHLLANSPKVKQTDKQKLAQREEALQKIRQKNTMRREVTVELSSQGFWKTGIRSDVCQHAMMLPVLTHHIRYHQCLMHLDKLIGYTFQDRCLLQLAMTHPSHHLNFGMNPDHARNSLSNCGIRQPKYGDRKVHHMHMRKKGINTLINIMSRLGQDDPTPSRINHNERLEFLGDAVVEFLTSVHLYYLFPSLEEGGLATYRTAIVQNQHLAMLAKKLELDRFMLYAHGPDLCRESDLRHAMANCFEALIGAVYLEGSLEEAKQLFGRLLFNDPDLREVWLNYPLHPLQLQEPNTDRQLIETSPVLQKLTEFEEAIGVIFTHVRLLARAFTLRTVGFNHLTLGHNQRMEFLGDSIMQLVATEYLFIHFPDHHEGHLTLLRSSLVNNRTQAKVAEELGMQEYAITNDKTKRPVALRTKTLADLLESFIAALYIDKDLEYVHTFMNVCFFPRLKEFILNQDWNDPKSQLQQCCLTLRTEGKEPDIPLYKTLQTVGPSHARTYTVAVYFKGERIGCGKGPSIQQAEMGAAMDALEKYNFPQMAHQKRFIERKYRQELKEMRWEREHQEREPDETEDIKK
notes: Endogenous protein in nuclear extracts, not a purified recombinant construct; also called nuclear RNase III enzyme; SEMK2 Drosha

What was measured:
[1] = biological target: B2; assay: co-IP with anti-Drosha Ab, Western blot
Protocol: (§1) FIG. 2A) Western blot detection of immunoprecipitated proteins. […] For unambiguous identification of Drosha, recombinant Drosha exogenously expressed in K562 cells transfected with pCK-Drosha-Flag plasmid was purified by IP (Drosha:FLAG). 20 μg nuclear extracts of leukemic cells or around 2.5 μg of immuno-purified Drosha were used in the analysis. Note that endogenous Drosha was purified from nuclear extracts while Drosha:FLAG was from whole cell lyzate.
(§2) K562 cells were transfected with pCK-drosha-flag by using a Nucleofector apparatus according to the manufacturer's instructions (AMAXA). 2 ×10^8 transfected cells were lysed and subjected to IP with anti-Flag M2 mAb as described in ref. 11. Briefly, 25 mg whole cell lysate were incubated with 500 μg mAb after preclearing with protein G Sepharose (GE Healthcare) at 4° C., O/N. Immunocomplex was precipitated with protein G Sepharose, washed, and the Drosha:FLAG in the precipitate was eluted by adding 3×FLAG peptide at a concentration of 0.4 mg/ml in a buffer containing 30 mM Hepes, pH7.4/100 mM KCl/5% Glycerol/0.2 mM EDTA/7.5 mM MgCl_2/2 mM DTT. Elution was repeated three times, each for 30 min at RT, and eluates were combined. For immunoprecipitation of endogenous Drosha, 50 mg of nuclear extracts from SEMK2 or PER377 cells prepared by the method of Dignam et al. (19) were subjected to IP with 300 μg of anti-Drosha Ab. […]

[2] = biological target: T1, normal p300 All1 (endogenous) (human, UniProt Q03164 1-2718, limits assumed); assay: co-immunoprecipitation with anti-Drosha Ab from nuclear extracts, Western blot
T1 construct: also called normal All1
T1 sequence (Q03164 1-2718 limits assumed): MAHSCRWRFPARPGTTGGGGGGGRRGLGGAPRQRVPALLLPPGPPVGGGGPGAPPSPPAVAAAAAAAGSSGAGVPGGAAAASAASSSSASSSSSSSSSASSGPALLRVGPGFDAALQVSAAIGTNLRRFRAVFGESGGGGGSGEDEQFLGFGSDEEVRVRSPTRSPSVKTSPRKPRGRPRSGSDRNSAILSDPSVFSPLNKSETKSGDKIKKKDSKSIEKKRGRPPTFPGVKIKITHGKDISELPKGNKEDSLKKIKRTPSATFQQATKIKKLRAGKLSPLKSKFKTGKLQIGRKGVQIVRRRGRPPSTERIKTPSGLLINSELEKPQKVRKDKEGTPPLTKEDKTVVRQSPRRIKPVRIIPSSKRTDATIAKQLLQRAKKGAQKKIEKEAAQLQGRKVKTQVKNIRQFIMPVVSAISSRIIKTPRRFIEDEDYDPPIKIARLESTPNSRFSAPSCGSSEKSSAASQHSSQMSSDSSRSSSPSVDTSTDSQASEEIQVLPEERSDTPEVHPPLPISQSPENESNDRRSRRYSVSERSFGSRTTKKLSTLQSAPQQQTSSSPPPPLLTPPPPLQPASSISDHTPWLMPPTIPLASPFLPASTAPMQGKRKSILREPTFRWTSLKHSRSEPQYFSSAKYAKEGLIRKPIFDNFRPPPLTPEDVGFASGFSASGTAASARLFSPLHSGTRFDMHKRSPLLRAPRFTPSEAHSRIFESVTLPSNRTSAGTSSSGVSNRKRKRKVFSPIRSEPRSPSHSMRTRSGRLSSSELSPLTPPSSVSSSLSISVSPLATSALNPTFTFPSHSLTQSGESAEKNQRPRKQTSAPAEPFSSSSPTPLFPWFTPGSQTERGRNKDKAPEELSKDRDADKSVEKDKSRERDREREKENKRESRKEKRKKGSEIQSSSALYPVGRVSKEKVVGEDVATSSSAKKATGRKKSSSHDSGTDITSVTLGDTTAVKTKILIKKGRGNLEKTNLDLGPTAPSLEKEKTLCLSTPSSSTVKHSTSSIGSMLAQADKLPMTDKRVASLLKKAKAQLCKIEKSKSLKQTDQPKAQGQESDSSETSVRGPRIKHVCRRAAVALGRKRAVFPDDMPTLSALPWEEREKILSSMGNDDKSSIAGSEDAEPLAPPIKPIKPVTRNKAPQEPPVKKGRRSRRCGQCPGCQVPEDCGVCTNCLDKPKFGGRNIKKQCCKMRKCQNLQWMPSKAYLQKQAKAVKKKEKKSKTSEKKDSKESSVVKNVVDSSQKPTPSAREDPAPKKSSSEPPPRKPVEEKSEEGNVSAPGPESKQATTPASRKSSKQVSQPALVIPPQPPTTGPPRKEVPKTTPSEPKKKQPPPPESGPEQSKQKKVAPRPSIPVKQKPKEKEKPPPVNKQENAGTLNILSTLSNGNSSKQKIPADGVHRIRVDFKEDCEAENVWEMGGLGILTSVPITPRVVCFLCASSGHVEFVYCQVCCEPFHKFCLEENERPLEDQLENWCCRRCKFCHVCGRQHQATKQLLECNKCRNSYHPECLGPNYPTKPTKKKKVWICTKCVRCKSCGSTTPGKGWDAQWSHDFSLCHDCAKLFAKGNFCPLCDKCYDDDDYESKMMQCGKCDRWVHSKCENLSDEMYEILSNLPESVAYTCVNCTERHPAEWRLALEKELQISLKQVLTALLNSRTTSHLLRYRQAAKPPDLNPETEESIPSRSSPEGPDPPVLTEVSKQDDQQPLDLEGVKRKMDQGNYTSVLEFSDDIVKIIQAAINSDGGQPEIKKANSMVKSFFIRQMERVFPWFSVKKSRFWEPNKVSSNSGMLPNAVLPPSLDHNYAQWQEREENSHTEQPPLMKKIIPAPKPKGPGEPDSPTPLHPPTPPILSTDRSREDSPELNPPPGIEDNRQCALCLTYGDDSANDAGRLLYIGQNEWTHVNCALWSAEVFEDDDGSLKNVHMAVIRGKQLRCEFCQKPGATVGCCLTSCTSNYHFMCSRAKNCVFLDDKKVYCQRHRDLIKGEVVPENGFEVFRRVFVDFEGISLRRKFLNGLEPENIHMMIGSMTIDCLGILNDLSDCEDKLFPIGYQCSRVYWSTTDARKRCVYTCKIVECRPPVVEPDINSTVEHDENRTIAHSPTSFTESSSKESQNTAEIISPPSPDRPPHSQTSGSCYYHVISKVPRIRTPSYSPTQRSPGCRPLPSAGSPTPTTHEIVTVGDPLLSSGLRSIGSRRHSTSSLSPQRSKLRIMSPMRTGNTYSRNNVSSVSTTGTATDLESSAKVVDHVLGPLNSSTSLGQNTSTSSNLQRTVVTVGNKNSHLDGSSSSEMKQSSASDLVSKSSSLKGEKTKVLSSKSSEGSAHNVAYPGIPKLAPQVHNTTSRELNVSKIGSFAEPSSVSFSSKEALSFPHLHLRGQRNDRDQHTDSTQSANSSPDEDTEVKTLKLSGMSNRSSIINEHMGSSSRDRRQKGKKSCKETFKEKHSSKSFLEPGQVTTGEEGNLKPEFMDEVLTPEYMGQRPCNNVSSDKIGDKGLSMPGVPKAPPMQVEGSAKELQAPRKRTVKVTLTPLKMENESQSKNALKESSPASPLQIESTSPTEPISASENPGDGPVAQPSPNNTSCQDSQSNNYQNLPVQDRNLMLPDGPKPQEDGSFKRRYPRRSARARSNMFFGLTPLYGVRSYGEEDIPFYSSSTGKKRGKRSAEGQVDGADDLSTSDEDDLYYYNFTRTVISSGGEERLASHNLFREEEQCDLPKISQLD
Protocol: as §1, §2

## B1
[1]
  binding result: binds

## B2
[2]
  binding result: no binding
